B1: DNA-Binding protein, P69542 (parent)
chain: MIKVEIKPSQAQFTTRSGVSRQGKPYSLNEQLCYVDLGNEYPVLVKITLDEGQPAYAPGLYTVHLSSFKVGQFGSLMIDRLRLVPAK

Variants of: B1
Conditions: Enterobacteria phage fd; pH 7; 25 °C; GdnHCl; CD; MOPS 50 mM; NaCl 100 mM; reversible: yes; structure 1VQB; whole UniProt chain shown

Variant	ddG of mutation (higher = less stable)	denaturant m value	denaturant midpoint (higher = more stable)	unfolding free energy
V35L I47F	3.94 kcal/mol	4.3 kcal/mol/M	1.6 M	5.1 kcal/mol
V35L I47M	5.3 kcal/mol	5 kcal/mol/M	1.37 M	3.7 kcal/mol
V35L I47L	3.5 kcal/mol	4.3 kcal/mol/M	1.7 M	5.5 kcal/mol
V35L I47V	5 kcal/mol	4.2 kcal/mol/M	1.32 M	4 kcal/mol
V35I I47V	3 kcal/mol	4.1 kcal/mol/M	1.8 M	6 kcal/mol
V35I I47L	1.1 kcal/mol	4.2 kcal/mol/M	2.27 M	7.9 kcal/mol
V35I I47M	2.8 kcal/mol	4.2 kcal/mol/M	1.87 M	6.3 kcal/mol
V35I I47F	2 kcal/mol	4.4 kcal/mol/M	2.05 M	7 kcal/mol
V35C I47C	7.1 kcal/mol	4.9 kcal/mol/M	0.99 M	1.9 kcal/mol
V35A I47V	4.4 kcal/mol	4.5 kcal/mol/M	1.5 M	4.6 kcal/mol
V35A I47L	2.9 kcal/mol	4.5 kcal/mol/M	1.85 M	6.1 kcal/mol
V35A I47M	4.4 kcal/mol	4.2 kcal/mol/M	1.47 M	4.6 kcal/mol
V35M I47M	3.5 kcal/mol	3.8 kcal/mol/M	1.65 M	5.5 kcal/mol
V35M I47F	2.3 kcal/mol	4.7 kcal/mol/M	1.99 M	6.8 kcal/mol
V35M I47L	1.6 kcal/mol	4.1 kcal/mol/M	2.14 M	7.4 kcal/mol
V35F	3.1 kcal/mol	3.8 kcal/mol/M	1.76 M	5.9 kcal/mol
V35I	0.6 kcal/mol	3.6 kcal/mol/M	2.44 M	8.4 kcal/mol
V35M	1 kcal/mol	3.6 kcal/mol/M	2.33 M	8 kcal/mol
V35C	1.4 kcal/mol	4.1 kcal/mol/M	2.21 M	7.7 kcal/mol
V35A	2.2 kcal/mol	3.9 kcal/mol/M	2.01 M	6.9 kcal/mol
V35L	2.7 kcal/mol	4.5 kcal/mol/M	1.9 M	6.4 kcal/mol
I47V	2.5 kcal/mol	3.9 kcal/mol/M	1.91 M	6.5 kcal/mol
I47M	2.1 kcal/mol	3.9 kcal/mol/M	2.02 M	6.9 kcal/mol
I47A	7 kcal/mol	4.3 kcal/mol/M	0.87 M	2 kcal/mol
I47L	0.6 kcal/mol	3.7 kcal/mol/M	2.43 M	8.4 kcal/mol
V35F I47L	4.1 kcal/mol	3.9 kcal/mol/M	1.51 M	4.9 kcal/mol

Source: FireProtDB (doi:10.1073/pnas.88.5.1706)
